# Results: patent US20260242839A1, “GLYCOSIDE PRODUCT BIOSYNTHESIS AND RECOVERY” (Manus Bio Inc., priority 2023, published 2026)
# Test system: Mog. IIE or Mog. IE
# Experiment: branched glycosylation reactions by cells expressing UGT enzymes
# Type: cell-based, E. coli
# Details: Mog. IIE or Mog. IE fed; 37° C., 48 hr; LC-MS/MS
# Protocol: Mog. IIE or Mog. IE was fed to cells expressing various UGT enzymes. Reactions were incubated at 37° C. for 48 hr. Products were quantified by LC-MS/MS with authentic standards of each compound. “Indirect” evidence means that consumption of substrate was observed.
Molecule,C3 1-2,C3 1-6,C24 1-2,C24 1-6
"SEQ ID NO: 74: CcUGT_1,6 (Coffea canephora) (protein, listed as Coffea canephora) MAENHATFNVLMLPWLAHGHVSPYLELAMKLTARNFNVYLCSSPATLSSVRSKLTEKFSQSIHLVELHLPKLPELPAEYHTTNGLPPHLMPTLKDAFDMAKPNFCNVLKSLKPDLLIYDLLQPWAPEAASAFNIPAVVFISSSATMTSFGLHFFKNPGTKYPYGNTIFYRDYESVFVENLKKRDRDTYRVVNCMERSSKIILIKGFKEIEGKYFDYFSCLTGKKVVPVGPLVQDPVLDDEDCRIMQWLNKKEKGSTVFVSFGSEYFLSKEDMEEIAHGLELSNVDFIWVVRFPKGENIVIEETLPKGFFERVGERGLVVNGWAPQAKILTHPNVGGFVSHCGWNSVMESMKFGLPIVAMPMHLDQPINARLIEEVGAGVEVLRDSKGKLHRERMAETINKVTKEASGEPARKKARELQEKLELKGDEEIDDVVKELVQLCATKNKRNGLHCYN",No,Yes,No,Yes

# Test system: steviol glycoside
# Experiment: steviol glycoside bioconversion by E. coli expressing individual mutations of UGT SEQ ID NO: 13
# Type: cell-based
# Details: fold improvement of % conversion vs parent UGT SEQ ID NO: 13; stevia leaf extract and glucose fed; 37° C., 48 hr
# Description: A UGT enzyme referred to as MbUGT1,2 is described in U.S. Pat. No. 10,743,567, which is hereby incorporated by reference. An engineered version of MbUGT1,2 (SEQ ID NO: 13) is described in US 2020/0087692, which is hereby incorporated by reference in its entirety. The UGT enzyme of SEQ ID NO: 13 was further engineered to improve activity for steviol glycoside bioconversion. […] Fold improvement is with respect to % steviol glycoside conversion of the parent UGT enzyme (SEQ ID NO: 13). SEQ ID NO: 14 has the following mutations from SEQ ID NO: 13: G5N, F186T, V397S. Stevia leaf extract and glucose were fed to the bioconversion strains. Bioconversion took place at 37° C. for 48 hr. Data were quantified by reverse phase LC DAD to quantify conversion of steviol glycosides.
# Fold improvement (FI) is with respect to % steviol glycoside conversion.
Molecule,FI %Stevioside→rebE,FI %rebA→rebD
G210E: mutation to UGT enzyme of SEQ ID NO: 13 (protein) MATKGSSGMSLAERFWLTLSRSSLVVGRSCVEFEPETVPLLSTLRGKPITFLGLMPPLHEGRREDGEDATVRWLDAQPAKSVVYVALGSEVPLGVEKVHELALGLELAGTRFLWALRKPTGVSDADLLPAGFEERTRGRGVVATRWVPQMSILAHAAVGAFLTHCGWNSTIEGLMFGHPLIMLPIFGDQGPNARLIEAKNAGLQVARNDEDGSFDREGVAAAIRAVAVEEESSKVFQAKAKKLQEIVADMACHERYIDGFIQQLRSYKDDSGYSSSYAAAAGMHVVICPWLAFGHLLPCLDLAQRLASRGHRVSFVSTPRNISRLPPVRPALAPLVAFVALPLPRVEGLPDGAESTNDVPHDRPDMVELHRRAFDGLAAPFSEFLGTACADWVIVDVFHHWAAAAALEHKVPCAMMLLGSAEMIASIADERLEHAETESPAAAGQGRPAAAPTFEVARMKLIR,1.2,1.2
F186T: mutation to UGT enzyme of SEQ ID NO: 13 (protein) MATKGSSGMSLAERFWLTLSRSSLVVGRSCVEFEPETVPLLSTLRGKPITFLGLMPPLHEGRREDGEDATVRWLDAQPAKSVVYVALGSEVPLGVEKVHELALGLELAGTRFLWALRKPTGVSDADLLPAGFEERTRGRGVVATRWVPQMSILAHAAVGAFLTHCGWNSTIEGLMFGHPLIMLPITGDQGPNARLIEAKNAGLQVARNDGDGSFDREGVAAAIRAVAVEEESSKVFQAKAKKLQEIVADMACHERYIDGFIQQLRSYKDDSGYSSSYAAAAGMHVVICPWLAFGHLLPCLDLAQRLASRGHRVSFVSTPRNISRLPPVRPALAPLVAFVALPLPRVEGLPDGAESTNDVPHDRPDMVELHRRAFDGLAAPFSEFLGTACADWVIVDVFHHWAAAAALEHKVPCAMMLLGSAEMIASIADERLEHAETESPAAAGQGRPAAAPTFEVARMKLIR,1.8,1.7
V397C: mutation to UGT enzyme of SEQ ID NO: 13 (protein) MATKGSSGMSLAERFWLTLSRSSLVVGRSCVEFEPETVPLLSTLRGKPITFLGLMPPLHEGRREDGEDATVRWLDAQPAKSVVYVALGSEVPLGVEKVHELALGLELAGTRFLWALRKPTGVSDADLLPAGFEERTRGRGVVATRWVPQMSILAHAAVGAFLTHCGWNSTIEGLMFGHPLIMLPIFGDQGPNARLIEAKNAGLQVARNDGDGSFDREGVAAAIRAVAVEEESSKVFQAKAKKLQEIVADMACHERYIDGFIQQLRSYKDDSGYSSSYAAAAGMHVVICPWLAFGHLLPCLDLAQRLASRGHRVSFVSTPRNISRLPPVRPALAPLVAFVALPLPRVEGLPDGAESTNDVPHDRPDMVELHRRAFDGLAAPFSEFLGTACADWVIVDCFHHWAAAAALEHKVPCAMMLLGSAEMIASIADERLEHAETESPAAAGQGRPAAAPTFEVARMKLIR,1.9,1.9
V397S: mutation to UGT enzyme of SEQ ID NO: 13 (protein) MATKGSSGMSLAERFWLTLSRSSLVVGRSCVEFEPETVPLLSTLRGKPITFLGLMPPLHEGRREDGEDATVRWLDAQPAKSVVYVALGSEVPLGVEKVHELALGLELAGTRFLWALRKPTGVSDADLLPAGFEERTRGRGVVATRWVPQMSILAHAAVGAFLTHCGWNSTIEGLMFGHPLIMLPIFGDQGPNARLIEAKNAGLQVARNDGDGSFDREGVAAAIRAVAVEEESSKVFQAKAKKLQEIVADMACHERYIDGFIQQLRSYKDDSGYSSSYAAAAGMHVVICPWLAFGHLLPCLDLAQRLASRGHRVSFVSTPRNISRLPPVRPALAPLVAFVALPLPRVEGLPDGAESTNDVPHDRPDMVELHRRAFDGLAAPFSEFLGTACADWVIVDSFHHWAAAAALEHKVPCAMMLLGSAEMIASIADERLEHAETESPAAAGQGRPAAAPTFEVARMKLIR,3.8,3.4
C288F: mutation to UGT enzyme of SEQ ID NO: 13 (protein) MATKGSSGMSLAERFWLTLSRSSLVVGRSCVEFEPETVPLLSTLRGKPITFLGLMPPLHEGRREDGEDATVRWLDAQPAKSVVYVALGSEVPLGVEKVHELALGLELAGTRFLWALRKPTGVSDADLLPAGFEERTRGRGVVATRWVPQMSILAHAAVGAFLTHCGWNSTIEGLMFGHPLIMLPIFGDQGPNARLIEAKNAGLQVARNDGDGSFDREGVAAAIRAVAVEEESSKVFQAKAKKLQEIVADMACHERYIDGFIQQLRSYKDDSGYSSSYAAAAGMHVVIFPWLAFGHLLPCLDLAQRLASRGHRVSFVSTPRNISRLPPVRPALAPLVAFVALPLPRVEGLPDGAESTNDVPHDRPDMVELHRRAFDGLAAPFSEFLGTACADWVIVDVFHHWAAAAALEHKVPCAMMLLGSAEMIASIADERLEHAETESPAAAGQGRPAAAPTFEVARMKLIR,1.7,1.5
V91A: mutation to UGT enzyme of SEQ ID NO: 13 (protein) MATKGSSGMSLAERFWLTLSRSSLVVGRSCVEFEPETVPLLSTLRGKPITFLGLMPPLHEGRREDGEDATVRWLDAQPAKSVVYVALGSEAPLGVEKVHELALGLELAGTRFLWALRKPTGVSDADLLPAGFEERTRGRGVVATRWVPQMSILAHAAVGAFLTHCGWNSTIEGLMFGHPLIMLPIFGDQGPNARLIEAKNAGLQVARNDGDGSFDREGVAAAIRAVAVEEESSKVFQAKAKKLQEIVADMACHERYIDGFIQQLRSYKDDSGYSSSYAAAAGMHVVICPWLAFGHLLPCLDLAQRLASRGHRVSFVSTPRNISRLPPVRPALAPLVAFVALPLPRVEGLPDGAESTNDVPHDRPDMVELHRRAFDGLAAPFSEFLGTACADWVIVDVFHHWAAAAALEHKVPCAMMLLGSAEMIASIADERLEHAETESPAAAGQGRPAAAPTFEVARMKLIR,1.1,1.1
A248G: mutation to UGT enzyme of SEQ ID NO: 13 (protein) MATKGSSGMSLAERFWLTLSRSSLVVGRSCVEFEPETVPLLSTLRGKPITFLGLMPPLHEGRREDGEDATVRWLDAQPAKSVVYVALGSEVPLGVEKVHELALGLELAGTRFLWALRKPTGVSDADLLPAGFEERTRGRGVVATRWVPQMSILAHAAVGAFLTHCGWNSTIEGLMFGHPLIMLPIFGDQGPNARLIEAKNAGLQVARNDGDGSFDREGVAAAIRAVAVEEESSKVFQAKAKKLQEIVGDMACHERYIDGFIQQLRSYKDDSGYSSSYAAAAGMHVVICPWLAFGHLLPCLDLAQRLASRGHRVSFVSTPRNISRLPPVRPALAPLVAFVALPLPRVEGLPDGAESTNDVPHDRPDMVELHRRAFDGLAAPFSEFLGTACADWVIVDVFHHWAAAAALEHKVPCAMMLLGSAEMIASIADERLEHAETESPAAAGQGRPAAAPTFEVARMKLIR,1.1,1.1
F186I: mutation to UGT enzyme of SEQ ID NO: 13 (protein) MATKGSSGMSLAERFWLTLSRSSLVVGRSCVEFEPETVPLLSTLRGKPITFLGLMPPLHEGRREDGEDATVRWLDAQPAKSVVYVALGSEVPLGVEKVHELALGLELAGTRFLWALRKPTGVSDADLLPAGFEERTRGRGVVATRWVPQMSILAHAAVGAFLTHCGWNSTIEGLMFGHPLIMLPIIGDQGPNARLIEAKNAGLQVARNDGDGSFDREGVAAAIRAVAVEEESSKVFQAKAKKLQEIVADMACHERYIDGFIQQLRSYKDDSGYSSSYAAAAGMHVVICPWLAFGHLLPCLDLAQRLASRGHRVSFVSTPRNISRLPPVRPALAPLVAFVALPLPRVEGLPDGAESTNDVPHDRPDMVELHRRAFDGLAAPFSEFLGTACADWVIVDVFHHWAAAAALEHKVPCAMMLLGSAEMIASIADERLEHAETESPAAAGQGRPAAAPTFEVARMKLIR,2.6,2.1
F186M: mutation to UGT enzyme of SEQ ID NO: 13 (protein) MATKGSSGMSLAERFWLTLSRSSLVVGRSCVEFEPETVPLLSTLRGKPITFLGLMPPLHEGRREDGEDATVRWLDAQPAKSVVYVALGSEVPLGVEKVHELALGLELAGTRFLWALRKPTGVSDADLLPAGFEERTRGRGVVATRWVPQMSILAHAAVGAFLTHCGWNSTIEGLMFGHPLIMLPIMGDQGPNARLIEAKNAGLQVARNDGDGSFDREGVAAAIRAVAVEEESSKVFQAKAKKLQEIVADMACHERYIDGFIQQLRSYKDDSGYSSSYAAAAGMHVVICPWLAFGHLLPCLDLAQRLASRGHRVSFVSTPRNISRLPPVRPALAPLVAFVALPLPRVEGLPDGAESTNDVPHDRPDMVELHRRAFDGLAAPFSEFLGTACADWVIVDVFHHWAAAAALEHKVPCAMMLLGSAEMIASIADERLEHAETESPAAAGQGRPAAAPTFEVARMKLIR,2.9,2.3
